By Kd is commonly meant the concentration at which binding is half-saturated.

First the molecules themselves.
T1: PUF4 RNA-binding domain (Saccharomyces cerevisiae, UniProt P25339 537-888)
T1 sequence: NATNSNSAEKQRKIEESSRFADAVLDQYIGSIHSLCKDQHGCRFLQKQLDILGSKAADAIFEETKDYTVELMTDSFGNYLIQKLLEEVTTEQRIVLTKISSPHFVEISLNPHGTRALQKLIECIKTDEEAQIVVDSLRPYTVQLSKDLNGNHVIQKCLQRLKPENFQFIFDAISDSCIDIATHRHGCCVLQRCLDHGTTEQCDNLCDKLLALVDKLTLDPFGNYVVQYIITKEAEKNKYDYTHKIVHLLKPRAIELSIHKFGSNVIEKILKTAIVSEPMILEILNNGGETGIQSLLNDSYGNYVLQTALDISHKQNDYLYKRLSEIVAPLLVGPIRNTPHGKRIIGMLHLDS

B1: Id_iii_S4_P5E.5_K5.1_C5.3_H5.1_A5.1_F5.1_T5.2_[A12C] (ssRNA)
RNA: UUUGACAACUGAUCGUUCUUUCUUCUUGUAUUAUUAUCUUCUUUCUCGAUCAGUUGUCUUU
B2: Id_iii_S4_P5E.8_K5.4_C5.3_H5.1_A5.2_F5.1_T5.2_[A12C] (ssRNA)
RNA: UUUGACAACUGAUCGUUCUUUCUUCUUGUAAUAUUAUCUUCUUUCUCGAUCAGUUGUCUUU
B3: Id_iii_S4_P5E.7_K5.3_C5.3_[T-1C]_H5.3_A5.1_F5.1_T5.2 (ssRNA)
RNA: UUUGACAACUGAUCGUUCUUUCUUCCACACUUAUUAUAUUCUUUCUCGAUCAGUUGUCUUU
B4: Id_iii_S4_P5E.7_K5.3_C5.3_[C-2T]_H5.3_A5.1_F5.1_T5.2 (ssRNA)
RNA: UUUGACAACUGAUCGUUCUUUCUUUUACACUUAUUAUAUUCUUUCUCGAUCAGUUGUCUUU
B5: Id_iii_S4_P5E.5_K5.1_C5.3_H5.1_A5.1_F5.1_T5.2_[A12T] (ssRNA)
RNA: UUUGACAACUGAUCGUUCUUUCUUCUUGUAUUAUUAUUUUCUUUCUCGAUCAGUUGUCUUU
B6: Id_iii_S4_P5E.8_K5.4_C5.3_[C-2G]_H5.1_A5.2_F5.1_T5.2 (ssRNA)
RNA: UUUGACAACUGAUCGUUCUUUCUUGUUGUAAUAUUAUAUUCUUUCUCGAUCAGUUGUCUUU
B7: Id_iii_S4_P5E.7_K5.3_C5.3_[C-2A]_H5.3_A5.1_F5.1_T5.2 (ssRNA)
RNA: UUUGACAACUGAUCGUUCUUUCUUAUACACUUAUUAUAUUCUUUCUCGAUCAGUUGUCUUU
B8: Id_iii_S4_P4E.7_K4.3_C4.3_H4.3_A4.1_F4.1_T4.2_[T11C] (ssRNA)
RNA: UUUGACAACUGAUCGUUCUUUCUUCUACACUAUUAGCUUCUUUCUCGAUCAGUUGUCUUU
B9: Id_iii_S4_P4E.8_K4.4_C4.3_[C-2A]_H4.1_A4.2_F4.1_T4.2 (ssRNA)
RNA: UUUGACAACUGAUCGUUCUUUCUUAUUGUAUUUUAGUUUCUUUCUCGAUCAGUUGUCUUU
B10: Id_iii_S4_P4E.8_K4.4_C4.3_[T-1C]_H4.1_A4.2_F4.1_T4.2 (ssRNA)
RNA: UUUGACAACUGAUCGUUCUUUCUUCCUGUAUUUUAGUUUCUUUCUCGAUCAGUUGUCUUU
B11: Id_iii_S4_P4E.8_K4.4_C4.3_[T-3C]_H4.1_A4.2_F4.1_T4.2 (ssRNA)
RNA: UUUGACAACUGAUCGUUCUUUCUCCUUGUAUUUUAGUUUCUUUCUCGAUCAGUUGUCUUU
B12: Id_iii_S4_P4E.8_K4.4_C4.3_H4.1_A4.2_F4.1_T4.2_[T11C] (ssRNA)
RNA: UUUGACAACUGAUCGUUCUUUCUUCUUGUAUUUUAGCUUCUUUCUCGAUCAGUUGUCUUU
B13: Id_iii_S4_P4E.8_K4.4_C4.3_H4.1_A4.2_F4.1_T4.2_[G10C] (ssRNA)
RNA: UUUGACAACUGAUCGUUCUUUCUUCUUGUAUUUUACUUUCUUUCUCGAUCAGUUGUCUUU
B14: Id_iii_S4_P4E.8_K4.4_C4.3_[T-1G]_H4.1_A4.2_F4.1_T4.2 (ssRNA)
RNA: UUUGACAACUGAUCGUUCUUUCUUCGUGUAUUUUAGUUUCUUUCUCGAUCAGUUGUCUUU
B15: Id_iii_S4_P4E.8_K4.4_C4.3_[C-2T]_H4.1_A4.2_F4.1_T4.2 (ssRNA)
RNA: UUUGACAACUGAUCGUUCUUUCUUUUUGUAUUUUAGUUUCUUUCUCGAUCAGUUGUCUUU

The target of the series is T1, PUF4 RNA-binding domain. Put plainly: Mg; RNA-MaP; 20 mM Na-HEPES pH 7.4, 30 mM KOAc, 0.75 mM MgCl2, 0.1% Tween-20, 5% glycerol, 0.1 mg/mL BSA, 2 mM DTT; 25 C; 0.0125-409.6 nM protein. To be noted: tags: N-His6-TEV cleaved; C-SNAP kept, Cy3B-labelled; label: tethered on chip by stalled RNA polymerase.
For the molecule UCUCUUCUCCUGUAUAUAUAUCUCUU (ssRNA) [Ie_S1_P3E.2_K3.1_C3.2_[+-1CC]_H3.1_A3.1_F3.1_T3.2], the affinity, expressed as Kd, was 4.99 nM.

In the case of UCUCUUUGUACUGUUAUCUCUU (ssRNA) [Ib_S1_P5E.1_K5.1_C5.1_H5.1_A5.1_[T5C]_[A7G]_F5.1_T5.1], the dissociation constant (Kd) amounted to 7.89 nM.

UCUCUUCCCUUGUAUAUAUAUCUCUU (ssRNA) [Ie_S1_P3E.2_K3.1_C3.2_[+-2CC]_H3.1_A3.1_F3.1_T3.2]: the affinity, expressed as Kd, was 7.06 nM.

UCUCUUCUUUCUGUAUAUAUAUCUCUU (ssRNA) [Ie_S1_P3E.2_K3.1_C3.2_H3.1_[+1TCT]_A3.1_F3.1_T3.2] gave a Kd of 3.95 nM.

On to UCUCUUCUUCUUGUAUAUAUAUCUCUU (ssRNA) [Ie_S1_P3E.2_K3.1_C3.2_[+-1TCT]_H3.1_A3.1_F3.1_T3.2], for which the Kd is 4.28 nM.

As to UCUCUUCCUUUUGUAUAUAUAUCUCUU (ssRNA) [Ie_S1_P3E.2_K3.1_C3.2_[+-2CTT]_H3.1_A3.1_F3.1_T3.2], the Kd was 5.14 nM.

Molecule UCUCUUCUUUGUAUAUAUAUCUCUU (ssRNA) [Ie_S1_P3E.2_K3.1_C3.2_[+-2T]_H3.1_A3.1_F3.1_T3.2] returned a Kd of 4.55 nM.

Turning to UCUCUUCCUCUCUUGUAUAUAUAUCUCUU (ssRNA) [Ie_S1_P3E.2_K3.1_C3.2_[+-2CTCTC]_H3.1_A3.1_F3.1_T3.2], the equilibrium dissociation constant (Kd) came out at 7.46 nM.

Molecule UCUCUUCUUUUGUAUAUAUAUCUCUU (ssRNA) [Ie_S1_P3E.2_K3.1_C3.2_H3.1_[+1TT]_A3.1_F3.1_T3.2] gave a Kd of 5.47 nM.

As for UCUCUUCUUCCUGUAUAUAUAUCUCUU (ssRNA) [Ie_S1_P3E.2_K3.1_C3.2_H3.1_[+1CCT]_A3.1_F3.1_T3.2], binding was put at a Kd of 5.41 nM.

Regarding UCUCUUCUCCCUUUGUAUAUAUAUCUCUU (ssRNA) [Ie_S1_P3E.2_K3.1_C3.2_[+-1CCCTT]_H3.1_A3.1_F3.1_T3.2], the Kd turned out to be 6.24 nM.

As for UCUCUUCCCCUUUUGUAUAUAUAUCUCUU (ssRNA) [Ie_S1_P3E.2_K3.1_C3.2_[+-2CCCTT]_H3.1_A3.1_F3.1_T3.2], binding was characterised by a dissociation constant (Kd) of 5.86 nM.

The molecule UCUCUUCUCUUGUAUAUAUAUCUCUU (ssRNA) [Ie_S1_P3E.2_K3.1_C3.2_[+-2TC]_H3.1_A3.1_F3.1_T3.2] yielded a dissociation constant (Kd) of 4.74 nM.

As to UCUCUUUGUACUCUUAUCUCUU (ssRNA) [Ib_S1_P5E.1_K5.1_C5.1_H5.1_A5.1_[T5C]_[A7C]_F5.1_T5.1], binding was characterised by a dissociation constant (Kd) of 9.68 nM.

In turn, UCUCUUUGUAAUGUUAUCUCUU (ssRNA) [Ib_S1_P5E.1_K5.1_C5.1_H5.1_A5.1_[T5A]_[A7G]_F5.1_T5.1] came in with a Kd of 12.7 nM.

Turning to UCUCUUCCCUCUUGUAUAUAUAUCUCUU (ssRNA) [Ie_S1_P3E.2_K3.1_C3.2_[+-2CCTC]_H3.1_A3.1_F3.1_T3.2], the Kd was determined as 7.14 nM.

On to B1, for which the affinity, expressed as Kd, was 1.71 nM.

B2 returned a Kd of 2.73 nM.

For the molecule B3, the Kd came to 543 nM.

Consider B4, for which the affinity, expressed as Kd, was 513 nM.

Consider B5, for which the Kd came out at 1.28 nM.

B6 had a Kd of 11.1 nM.

Molecule B7 came in with a Kd of 1020 nM.

For the molecule UCUCUUCCUCUUUGUAUAUAUAUCUCUU (ssRNA) [Ie_S1_P3E.2_K3.1_C3.2_[+-2CTCT]_H3.1_A3.1_F3.1_T3.2], the Kd was 4.97 nM.

The molecule UCUCUUCUUCCUUUGUAUAUAUAUCUCUU (ssRNA) [Ie_S1_P3E.2_K3.1_C3.2_[+-2TTCCT]_H3.1_A3.1_F3.1_T3.2] registered a Kd of 6.01 nM.

For UCUCUUCUCUCUUUGUAUAUAUAUCUCUU (ssRNA) [Ie_S1_P3E.2_K3.1_C3.2_[+-2TCTCT]_H3.1_A3.1_F3.1_T3.2], the affinity, expressed as Kd, was 4.28 nM.

In the case of UCUCUUCUUCCGUAUAUAUAUCUCUU (ssRNA) [Ie_S1_P3E.2_K3.1_C3.2_H3.1_[+1CC]_A3.1_F3.1_T3.2], the dissociation constant Kd amounted to 1270 nM.

For UCUCUUCCCCUUUGUAUAUAUAUCUCUU (ssRNA) [Ie_S1_P3E.2_K3.1_C3.2_[+-2CCCT]_H3.1_A3.1_F3.1_T3.2], the Kd was found to be 3.73 nM.

For UCUCUUCCUCUUGUAUAUAUAUCUCUU (ssRNA) [Ie_S1_P3E.2_K3.1_C3.2_[+-2CTC]_H3.1_A3.1_F3.1_T3.2], the Kd was found to be 7.17 nM.

UCUCUUUGUAAUCUUAUCUCUU (ssRNA) [Ib_S1_P5E.1_K5.1_C5.1_H5.1_A5.1_[T5A]_[A7C]_F5.1_T5.1] registered a Kd of 12.1 nM.

UCUCUUCUUCUCUUGUAUAUAUAUCUCUU (ssRNA) [Ie_S1_P3E.2_K3.1_C3.2_[+-1TCTCT]_H3.1_A3.1_F3.1_T3.2] registered a Kd of 5.94 nM.

Molecule UCUCUUCUCCUUGUAUAUAUAUCUCUU (ssRNA) [Ie_S1_P3E.2_K3.1_C3.2_[+-2TCC]_H3.1_A3.1_F3.1_T3.2] had a Kd of 4.39 nM.

In turn, B8 registered a Kd of more than 2300 nM.

Regarding B9, binding was characterised by a dissociation constant (Kd) of 1.14 nM.

The molecule B10 returned a Kd of 0.819 nM.

For the molecule B11, the Kd was 0.631 nM.

As for B12, the Kd was determined as 1.04 nM.

As for B13, the affinity, expressed as Kd, was 1.79 nM.

In turn, B14 had an equilibrium dissociation constant (Kd) of 1.14 nM.

For B15, the Kd came out at 0.755 nM.

For the molecule UCUCUUCUCUCUGUAUAUAUAUCUCUU (ssRNA) [Ie_S1_P3E.2_K3.1_C3.2_[+-1CTC]_H3.1_A3.1_F3.1_T3.2], the dissociation constant Kd came out at 4.2 nM.

Turning to UCUCUUCUCUCUCUGUAUAUAUAUCUCUU (ssRNA) [Ie_S1_P3E.2_K3.1_C3.2_[+-1CTCTC]_H3.1_A3.1_F3.1_T3.2], the Kd is 3.89 nM.

With UCUCUUCUUCUCUGUAUAUAUAUCUCUU (ssRNA) [Ie_S1_P3E.2_K3.1_C3.2_H3.1_[+1CTCT]_A3.1_F3.1_T3.2], the Kd was 4.16 nM.

UCUCUUCUCCCUUGUAUAUAUAUCUCUU (ssRNA) [Ie_S1_P3E.2_K3.1_C3.2_[+-1CCCT]_H3.1_A3.1_F3.1_T3.2] displayed a dissociation constant (Kd) of 2.61 nM.

UCUCUUCUUCUGUAUAUAUAUCUCUU (ssRNA) [Ie_S1_P3E.2_K3.1_C3.2_H3.1_[+1CT]_A3.1_F3.1_T3.2]: the Kd is 4.75 nM.

In turn, UCUCUUCUCUCUUGUAUAUAUAUCUCUU (ssRNA) [Ie_S1_P3E.2_K3.1_C3.2_[+-2TCTC]_H3.1_A3.1_F3.1_T3.2] yielded an equilibrium dissociation constant (Kd) of 4.58 nM.

UCUCUUCUUUUUGUAUAUAUAUCUCUU (ssRNA) [Ie_S1_P3E.2_K3.1_C3.2_H3.1_[+1TTT]_A3.1_F3.1_T3.2]: the affinity, expressed as Kd, was 5.49 nM.

The molecule UCUCUUCUCCUCUUGUAUAUAUAUCUCUU (ssRNA) [Ie_S1_P3E.2_K3.1_C3.2_[+-1CCTCT]_H3.1_A3.1_F3.1_T3.2] displayed a Kd of 3.91 nM.

UCUCUUCUUCCUUGUAUAUAUAUCUCUU (ssRNA) [Ie_S1_P3E.2_K3.1_C3.2_[+-2TTCC]_H3.1_A3.1_F3.1_T3.2] yielded a Kd of 6.09 nM.

UCUCUUCUUUCCUUGUAUAUAUAUCUCUU (ssRNA) [Ie_S1_P3E.2_K3.1_C3.2_[+-1TTCCT]_H3.1_A3.1_F3.1_T3.2] registered an equilibrium dissociation constant (Kd) of 4.2 nM.

UCUCUUUGUACUUUUAUCUCUU (ssRNA) [Ib_S1_P5E.1_K5.1_C5.1_H5.1_A5.1_[T5C]_[A7T]_F5.1_T5.1] displayed a Kd of 3.92 nM.

On to UCUCUUCUUCUCGUAUAUAUAUCUCUU (ssRNA) [Ie_S1_P3E.2_K3.1_C3.2_H3.1_[+1CTC]_A3.1_F3.1_T3.2], for which binding was characterised by a dissociation constant (Kd) of 449 nM.

These data come from PMC9352680, “A comprehensive thermodynamic model for RNA binding by the Saccharomyces cerevisiae Pumilio protein PUF4”.
